The text below walks through data of paper PMC9184524, “Structural Basis for pH-gating of the K^+ channel TWIK1 at the selectivity filter” (Nature Communications, 2022).

This series deals with the molecule itself. Description: cryo-EM structure; TWIK1 in MSP1D1 nanodiscs (2:1:1 DOPE:POPS:POPC), 20 mM HEPES pH 7.4, 150 mM KCl, 1 mM EDTA; C2 symmetry imposed; homodimer.

Usually stoichiometry N stands for a count of units in the complex or per binding partner.

B1: Rattus norvegicus TWIK1 (natural protein)
chain: MLQSLAGSSCVRLVERHRSAWCFGFLVLGYLLYLVFGAVVFSSVELPYEDLLRQELRKLKRRFLEEHECLSEPQLEQFLGRVLEASNYGVSVLSNASGNWNWDFTSALFFASTVLSTTGYGHTVPLSDGGKAFCIIYSVIGIPFTLLFLTAVVQRVTVHVTRRPVLYFHIRWGFSKQVVAIVHAVLLGFVTVSCFFFIPAAVFSVLEDDWNFLESFYFCFISLSTIGLGDYVPGEGYNQKFRELYKIGITCYLLLGLIAMLVVLETFCELHELKKFRKMFYVKKDKDEDQVHIMEHDQLSFSSITEQAAGLKEEQKQNEPFVASQSPPYEDGSANHSNSLEVLFQ
notes: TWIK1 (K2P1.1, KCNK1), Rattus norvegicus, Uniprot Q9Z2T2, full length; gene codon-optimized for Pichia pastoris; W20-Y281 modeled at pH 5.5, G24-F280 at pH 7.4; linker SNS and the part of the human rhinovirus 3C site (LEVLFQ/GP) left on the C-terminus after cleavage of EGFP-His10; cleaved on the resin with PPX before SEC and nanodisc reconstitution (MSP1D1 at pH 7.4, MSPE3D1 at pH 5.5); also …
As to B1, the “stoichiometry N” value is 2.
